Test results from the RNAGym collection of RNA variant scans (doi:10.1073/pnas.2313332121).

B1: TPR t1 (parent)
chain: GACCAAUCUGCCCUCAGAGCUCGAGAACAUCUUCGGAUGCAGAGGAGGCAGGCUUCGGUGGCGCGAUAGCGCCAACGUCCUCAACCUCCAAUGCAUCCCACCACAUGAUGAUGCCUGAAGAGCCUUGGUUUUUUG

Variants of: B1
Experiment: polymerase ribozyme fitness, log enrichment relative to wild type (log ratio); higher = more active; in vitro selection for triplet polymerase activity
Method in brief: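 Libraries of mutants in each subunit of a heterodimeric triplet polymerase ribozyme were generated by PCR and transcribed. In triplicate, each went through one in vitro selection round: annealing with biotinylated primer, partner subunit and triplets; frozen incubation at −7 °C; gel excision of extended constructs; streptavidin-bead capture; RT-PCR. Fitness, taken from Illumina sequencing of input and output libraries, is the logarithm of a genotype's enrichment over wild-type enrichment, averaged across replicates with inverse-variance weights. The logarithm is base 2, and genotypes needed ≥10 input reads and ≥1 read per output to be kept.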

Variant | polymerase ribozyme fitness (log ratio)
G71U A84G G120A U130G | -1.33
G71U C82A C88A | -1.39
C72G C99U | -3.45
G71A C85U G120C | 0.00346
C72A U96A A108G G122U U129C | -3.93
C72A A91G U92G G113C | -2.41
G71U A75G | -0.135
C72G A105G | -1.94
C72A C115G | -2.29
G71C C94U | -3.04
G71C A95U A111G C123U | -3.04
C72A G77A | -0.135
C72A C80G C114A C123G U126A | -6.21
C72G G113A | -1.71
C72G G113C | -2.87
G71C C82G U109A C115A A118U C123A | -6.35
G71U G77C C86U | -2.09
C72A A111G A121C | 1.27
C72G G77U | -1.71
G71C A100U G120U | -1.67
G71U A111U | -3.91

Variant | polymerase ribozyme fitness (log ratio)
G71U C102A | -2.25
G71U G77U C89A | -2.84
G71A | -0.673
G71C | -1.04
G71U | -0.118
C72G C85U | -1.45
C72A C76G U112G A119G | -0.512
C72G C101A U125G | -1.8
C72G G117C | -3.87
G71U C94G | -1.13
G71U C94A | -1.14
G71U C72G C123A | -2.68
C72A C101U C124A G135A | 2.37
G71U G93C G117C | -4.78
C72G C114G U130G U133A | -3.37
G71C G117A | -1.82
C72G C89A A90U | -2.32
G71C G110C U126C | -7.04
C70U U96G U125A | -1.32
C70U U87C C89A G120C | -2.9
G71C U81A G120U | -1.99

Variant | polymerase ribozyme fitness (log ratio)
G71A C79U C123U | 1.66
C72A U81A C94U C114A | -2.21
G71C C82A A100U G120U | -1.87
G71U C115A | 1.51
C72G A108C | -5.06
C70U U112A U116A | -1.48
G71C G122A | -2.06
G71C G93C | -1.98
C72A A90U C115U | -1.55
G71C U92A A119U C124A | -3.83
G71A A84U | -1.02
G71U G127A | -1.25
G71A G127U | -0.848
G71C C79U C101U | -0.546
G71A A91G | -2.18
G71A C79G C124G U125A | -3.71
G71U U78A C80U C114G | -2.44
G71U C114U | -1.41
G71U C101U C115A | -0.712
C72G C88G U96G | -2.68
C72G C86U A111U C115A | -4.83

Variant | polymerase ribozyme fitness (log ratio)
C72G C94G | -1.73
C72G G127U | -1.1
G71A A90G | -1.65
G71C C79U | 0.303
G71U U109A | -4.43
G71A U78C | -0.782
G71A C94A | -2.86
C72A C104A A105U G120A | -2.67
G71A A74U | -3.83
G71U G120A | 0.754
G71U G120U | -0.136
G71U C99G | -8.12
G71U U78C | -0.468
G71U U78G | -0.594
G71U C123A | 1.94
G71U C123G | 0.824
G71U C123U | 0.812
G71A A84G C102A C115G | -6.59
G71C C115A | -1.07
C72A U81G G120U | -0.653
C72G A121U | 0.731
